Read-outs that look alike come from different tables or passages of the source. Bridge positions count the residues as written; N and C are the ends. Square brackets hold non-standard residues; d marks the D form. Ends that are not written are not given here. Phe(4-NO2) = N[C@@H](Cc1ccc([N+](=O)[O-])cc1)C(=O)O; Phe(F5) = N[C@@H](Cc1c(F)c(F)c(F)c(F)c1F)C(=O)O; Phe(4-NH2) = Nc1ccc(C[C@H](N)C(=O)O)cc1; Phe(2-Me) = Cc1ccccc1C[C@H](N)C(=O)O; Pen = CC(C)(S)[C@H](N)C(=O)O; Sar = CNCC(=O)O

The results in this text go back to patent US20110059889A1 (SYNTONIX PHARMACEUTICALS, published 2011).

Assay [1] addresses T1, soluble human FcRn (shFcRn) (human, UniProt P55899 24-297; P61769 21-119).
T1 construct: Biotinylated for the ELISA, amine-coupled to a CM5 chip for SPR; also called biotinylated shFcRn
The assay can be described thus: SPR pH 6; Peptide No. 94: Pen, PheNHAc for Phe (QRF-Pen-TGH-(PheNHAc)-…).
Description: (§1) The following steps were performed to cross-link soluble human or cynomolgus FcRn to the dextran surface of a CM5 sensor chip (Biacore AB, Uppsala, Sweden) by an amine coupling reaction involving 1-ethyl-(3-dimethylaminopropyl)-carbodiimide hydrochloride (EDC) (Biacore AB, Uppsala, Sweden) and N-hydroxysuccinimide (NHS) (Biacore AB, Uppsala, Sweden) as recommended by Biacore (BIAapplications Handbook, version AB, section 4.2, Biacore AB, Uppsala, Sweden). […] Residual sites on the FcRn flow cell were blocked with 1 M ethanolamine hydrochloride pH 8.5 (Biacore AB, Uppsala, Sweden). A control flow cell was blocked with ethanolamine for reference subtraction. For analysis of the monomeric peptides, FcRn was coated to a final density of 4000-5000 response units (RU). For analysis of the peptide dimers, FcRn was coated to a density of 2000-2500 RU. All SPR measurements were performed using a BIACORE 3000 Instrument (Biacore AB Uppsala, Sweden). For measurements done at either pH 6 or pH 7.4, experiments were performed in 50 mM phosphate, 100 mM sodium chloride, 0.01% surfactant P20 (Biacore AB, Uppsala, Sweden).
(§2) Ten, 2-fold dilutions of the peptide were injected over the FcRn-CM5 chip at a rate of 20 μl/min for 2 min. The peptide was dissociated from the chip for 2.5 minutes with buffer. […] Sensorgrams were generated and analyzed using BiaEval software version 3.1 (Biacore AB, Uppsala, Sweden). […]

Assay [2] deals with T1, soluble human FcRn (shFcRn). Kind of assay: IgG competition ELISA.
Description: (§3) The wells were coated with 100 μl/well of 1 μg/ml biotinylated-shFcRn in Buffer A. The plate was sealed and incubated at 37° C. for 2 hours. Afterwards, the plate was washed with 200 μl/well of Buffer B (Buffer B: 100 mM MES pH 6, 150 mM NaCl, 0.5% BSA IgG-free (Jackson ImmunoResearch, West Grove, Pa.), 0.05% Tween-20). […] To allow for mixing, the plate was rocked for 2 minutes, sealed and incubated at 37° C. for 2 hours. […] The plate was covered, incubated for 30 minutes at room temperature and washed 4 times with 200 μl/well of ice-cold buffer B. SureBlue TMB substrate solution (100 μl/well, KPL, Gaithersburg, Md.) was added and the plate was allowed to incubate at room temperature until color developed, which took 5 to 10 minutes. Once color developed, 100 μl/well of TMB stop solution (KPL, Gaithersburg, Md.) was added and the absorbance was measured at 450 nm. The data was plotted as absorbance vs. peptide concentration to derive the inhibitory concentration 50% (IC₅₀) values.
Assay [3] has the same target. Kind of assay: SPR pH 6; 4-amino-Phe in place of Tyr; Pen backbone.
Description: as §1, §2
Assay [4] shares this target. Kind of assay: IgG competition ELISA. This is another data set of the same source.
Description: as §3
Assay [5] shares this target. The assay can be described thus: SPR pH 6; Peptide No. 74: Pen, G and lower-case a (QRF-Pen-TGHF-G-a-LYPCNGP).
Description: as §1, §2
For assay [6] the target is unchanged. The assay can be described thus: SPR pH 6; Peptide No. 189: Pen, lower-case a, Sar (QRF-Pen-TGHF-a-Sar-LYPCNGP).
Description: as §1, §2
Assay [7] shares this target. Kind of assay: SPR pH 6; 4-nitro-Phe in place of Tyr; Pen backbone.
Description: as §1, §2
The target is the same in assay [8]. Kind of assay: SPR pH 6; Peptide No. 75: Pen, lower-case a-G (QRF-Pen-TGHF-a-G-LYPCNGP).
Description: as §1, §2
Assay [9] shares this target. The assay can be described thus: IgG competition ELISA. This is another data set of the same source.
Description: as §3
For assay [10] the target is unchanged. The assay can be described thus: SPR pH 6.
Description: as §1
(§4) Ten, 2-fold dilutions of the peptide were injected over the FcRn-CM5 chip at a rate of 20 μl/min for 2 min. The peptide was dissociated from the chip for 2.5 minutes with buffer. Any remaining peptide was removed from the chip with a 30 second injection of HBS-P buffer (Biacore AB, Uppsala, Sweden) at a rate of 30 μl/min. Sensorgrams were generated and analyzed using BiaEval software version 3.1 (Biacore AB, Uppsala, Sweden). The equilibrium RU observed for each injection was plotted against concentration. The equilibrium KD values were derived by analysis of the plots using the steady state affinity model included in the BiaEval software.
Assay [11] has the same target. The assay can be described thus: SPR pH 7.4.
Description: as §1, §2
The target is the same in assay [12]. The assay can be described thus: SPR pH 6; pentafluoroPhe in place of Tyr; Pen backbone.
Description: as §1, §2
Assay [13] has the same target. The assay can be described thus: SPR pH 6; Peptide No. 88: Pen, 2-MePhe for Phe (QRF-Pen-TGH-(2-MePhe)-…).
Description: as §1, §2
Assay [14] has the same target. The assay can be described thus: IgG competition ELISA. This is another data set of the same source.
Description: as §3
For assay [15] the target is unchanged. Kind of assay: SPR pH 6. This is another data set of the same source.
Description: as §1, §4
Assay [16] shares this target. Kind of assay: SPR pH 7.4. This is another data set of the same source.
Description: as §1, §2
Assay [17] shares this target. Kind of assay: IgG competition ELISA. This is another data set of the same source.

T1 sequence (P55899 24-297 limits assumed, chain 1 of 2): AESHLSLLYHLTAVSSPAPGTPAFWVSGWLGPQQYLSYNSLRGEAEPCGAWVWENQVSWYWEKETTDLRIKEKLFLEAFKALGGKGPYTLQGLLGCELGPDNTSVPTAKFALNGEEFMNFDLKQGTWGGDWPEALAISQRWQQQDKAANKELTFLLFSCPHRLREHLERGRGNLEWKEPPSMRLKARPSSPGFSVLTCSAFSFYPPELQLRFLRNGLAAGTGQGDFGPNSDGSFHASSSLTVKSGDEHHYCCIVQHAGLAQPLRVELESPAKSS
T1 sequence (P61769 21-119 limits assumed, chain 2 of 2): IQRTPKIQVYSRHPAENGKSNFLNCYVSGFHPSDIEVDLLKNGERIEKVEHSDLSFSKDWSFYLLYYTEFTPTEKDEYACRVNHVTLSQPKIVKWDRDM

In turn, QRF[Pen]TGH[Phe(4-NHAc)]GGLYPCNGP-NH2 (disulfide 4-14) [Peptide No. 94] returned a Kd in assay [1] of 270 µM.

B1: Peptide No. 63 (peptide)
peptide: QRF[Pen]TGHFGGL[Phe(4-NH2)]PCNGP-NH2
modifications: disulfide 4-14; N-terminus assumed
SMILES: CC(C)C[C@@H]1NC(=O)CNC(=O)CNC(=O)[C@H](Cc2ccccc2)NC(=O)[C@H](Cc2c[nH]cn2)NC(=O)CNC(=O)[C@H]([C@@H](C)O)NC(=O)[C@@H](NC(=O)[C@H](Cc2ccccc2)NC(=O)[C@H](CCCNC(=N)N)NC(=O)[C@@H](N)CCC(N)=O)C(C)(C)SSC[C@@H](C(=O)N[C@@H](CC(N)=O)C(=O)NCC(=O)N2CCC[C@H]2C(N)=O)NC(=O)[C@@H]2CCCN2C(=O)[C@H](Cc2ccc(N)cc2)NC1=O
B1: in [2], the concentration for half-maximal inhibition (IC50) turned out to be 110 µM. Besides, the Kd in assay [3] stood at 34 µM.

B2: Peptide No. 74 (peptide)
peptide: QRF[Pen]TGHFG[dA]LYPCNGP-NH2
modifications: disulfide 4-14; N-terminus assumed
SMILES: CC(C)C[C@@H]1NC(=O)[C@@H](C)NC(=O)CNC(=O)[C@H](Cc2ccccc2)NC(=O)[C@H](Cc2c[nH]cn2)NC(=O)CNC(=O)[C@H]([C@@H](C)O)NC(=O)[C@@H](NC(=O)[C@H](Cc2ccccc2)NC(=O)[C@H](CCCNC(=N)N)NC(=O)[C@@H](N)CCC(N)=O)C(C)(C)SSC[C@@H](C(=O)N[C@@H](CC(N)=O)C(=O)NCC(=O)N2CCC[C@H]2C(N)=O)NC(=O)[C@@H]2CCCN2C(=O)[C@H](Cc2ccc(O)cc2)NC1=O
For the molecule B2, the IC50 in assay [4] was found to be 2 µM. Besides, binding in assay [5] was put at a Kd of 0.48 µM.

B3: Peptide No. 189 (peptide)
peptide: QRF[Pen]TGHF[dA][Sar]LYPCNGP-NH2
modifications: disulfide 4-14; N-terminus assumed
SMILES: CC(C)C[C@@H]1NC(=O)CN(C)C(=O)[C@@H](C)NC(=O)[C@H](Cc2ccccc2)NC(=O)[C@H](Cc2c[nH]cn2)NC(=O)CNC(=O)[C@H]([C@@H](C)O)NC(=O)[C@@H](NC(=O)[C@H](Cc2ccccc2)NC(=O)[C@H](CCCNC(=N)N)NC(=O)[C@@H](N)CCC(N)=O)C(C)(C)SSC[C@@H](C(=O)N[C@@H](CC(N)=O)C(=O)NCC(=O)N2CCC[C@H]2C(N)=O)NC(=O)[C@@H]2CCCN2C(=O)[C@H](Cc2ccc(O)cc2)NC1=O
B3: the dissociation constant Kd in assay [6] was 0.19 µM.

B4: Peptide No. 68 (peptide)
peptide: QRF[Pen]TGHFGGL[Phe(4-NO2)]PCNGP-NH2
modifications: disulfide 4-14; N-terminus assumed
SMILES: CC(C)C[C@@H]1NC(=O)CNC(=O)CNC(=O)[C@H](Cc2ccccc2)NC(=O)[C@H](Cc2c[nH]cn2)NC(=O)CNC(=O)[C@H]([C@@H](C)O)NC(=O)[C@@H](NC(=O)[C@H](Cc2ccccc2)NC(=O)[C@H](CCCNC(=N)N)NC(=O)[C@@H](N)CCC(N)=O)C(C)(C)SSC[C@@H](C(=O)N[C@@H](CC(N)=O)C(=O)NCC(=O)N2CCC[C@H]2C(N)=O)NC(=O)[C@@H]2CCCN2C(=O)[C@H](Cc2ccc([N+](=O)[O-])cc2)NC1=O
As to B4, the Kd in assay [7] stood at 180 µM.

B5: Peptide No. 75 (peptide)
peptide: QRF[Pen]TGHF[dA]GLYPCNGP-NH2
modifications: disulfide 4-14; N-terminus assumed
SMILES: CC(C)C[C@@H]1NC(=O)CNC(=O)[C@@H](C)NC(=O)[C@H](Cc2ccccc2)NC(=O)[C@H](Cc2c[nH]cn2)NC(=O)CNC(=O)[C@H]([C@@H](C)O)NC(=O)[C@@H](NC(=O)[C@H](Cc2ccccc2)NC(=O)[C@H](CCCNC(=N)N)NC(=O)[C@@H](N)CCC(N)=O)C(C)(C)SSC[C@@H](C(=O)N[C@@H](CC(N)=O)C(=O)NCC(=O)N2CCC[C@H]2C(N)=O)NC(=O)[C@@H]2CCCN2C(=O)[C@H](Cc2ccc(O)cc2)NC1=O
As to B5, the Kd in assay [8] worked out at 0.49 µM.

B6: Peptide No. 296 (peptide)
peptide: QRF[Pen]HGHFGGLYPCNGP-NH2
modifications: disulfide 4-14; N-terminus assumed
SMILES: CC(C)C[C@@H]1NC(=O)CNC(=O)CNC(=O)[C@H](Cc2ccccc2)NC(=O)[C@H](Cc2c[nH]cn2)NC(=O)CNC(=O)[C@H](Cc2c[nH]cn2)NC(=O)[C@@H](NC(=O)[C@H](Cc2ccccc2)NC(=O)[C@H](CCCNC(=N)N)NC(=O)[C@@H](N)CCC(N)=O)C(C)(C)SSC[C@@H](C(=O)N[C@@H](CC(N)=O)C(=O)NCC(=O)N2CCC[C@H]2C(N)=O)NC(=O)[C@@H]2CCCN2C(=O)[C@H](Cc2ccc(O)cc2)NC1=O
Consider B6, for which the 50% inhibitory concentration (IC50) in assay [9] turned out to be 3 µM. Further, the Kd in [10] stood at 0.15 µM; in [11] it was 0.96 µM.

B7: Peptide No. 65 (peptide)
peptide: QRF[Pen]TGHFGGL[Phe(F5)]PCNGP-NH2
modifications: disulfide 4-14; N-terminus assumed
SMILES: CC(C)C[C@@H]1NC(=O)CNC(=O)CNC(=O)[C@H](Cc2ccccc2)NC(=O)[C@H](Cc2c[nH]cn2)NC(=O)CNC(=O)[C@H]([C@@H](C)O)NC(=O)[C@@H](NC(=O)[C@H](Cc2ccccc2)NC(=O)[C@H](CCCNC(=N)N)NC(=O)[C@@H](N)CCC(N)=O)C(C)(C)SSC[C@@H](C(=O)N[C@@H](CC(N)=O)C(=O)NCC(=O)N2CCC[C@H]2C(N)=O)NC(=O)[C@@H]2CCCN2C(=O)[C@H](Cc2c(F)c(F)c(F)c(F)c2F)NC1=O
Molecule B7 displayed a Kd in assay [12] of 72 µM.

B8: Peptide No. 88 (peptide)
peptide: QRF[Pen]TGH[Phe(2-Me)]GGLYPCNGP-NH2
modifications: disulfide 4-14; N-terminus assumed
SMILES: Cc1ccccc1C[C@@H]1NC(=O)[C@H](Cc2c[nH]cn2)NC(=O)CNC(=O)[C@H]([C@@H](C)O)NC(=O)[C@@H](NC(=O)[C@H](Cc2ccccc2)NC(=O)[C@H](CCCNC(=N)N)NC(=O)[C@@H](N)CCC(N)=O)C(C)(C)SSC[C@@H](C(=O)N[C@@H](CC(N)=O)C(=O)NCC(=O)N2CCC[C@H]2C(N)=O)NC(=O)[C@@H]2CCCN2C(=O)[C@H](Cc2ccc(O)cc2)NC(=O)[C@H](CC(C)C)NC(=O)CNC(=O)CNC1=O
B8 displayed an equilibrium dissociation constant (Kd) in [13] of 0.2 µM. In [14], this molecule yielded an IC50 of 1 µM.

B9: Peptide No. 147 (peptide)
peptide: RF[Pen]TGHFG[Sar]YPCNGP-NH2
modifications: disulfide 3-12; N-terminus assumed
SMILES: C[C@@H](O)[C@@H]1NC(=O)[C@@H](NC(=O)[C@H](Cc2ccccc2)NC(=O)[C@@H](N)CCCNC(=N)N)C(C)(C)SSC[C@@H](C(=O)N[C@@H](CC(N)=O)C(=O)NCC(=O)N2CCC[C@H]2C(N)=O)NC(=O)[C@@H]2CCCN2C(=O)[C@H](Cc2ccc(O)cc2)NC(=O)CN(C)C(=O)CNC(=O)[C@H](Cc2ccccc2)NC(=O)[C@H](Cc2c[nH]cn2)NC(=O)CNC1=O
notes: copied as printed (RF-Pen-TGHFG-Sar-YPCNGP); a Leu after Sar may be missing in the print
Take B9: the figures for the dissociation constant Kd in assay [15] and in [16] were 0.058 µM and 0.35 µM, respectively. The IC50 in [17] was 1 µM.
